Measurements published in patent EP4724480A2 (dated 2026).

Key:
[1] = target: T1, ToH1 peptide of BmpC (Borrelia burgdorferi), SYERPDI (Borrelia burgdorferi); test: ELISA on ToH1 peptides (FIG.10B)
T1 construct: also called BmpC ToH1 peptide

[2] = target: T2, ToH1 peptide of OmpA (Bacteroidales), SFELPTI (Bacteroidales); test: ELISA on ToH1 peptides (FIG.10B)
T2 construct: also called OmpA ToH1 peptide

[3] = target: T3, ToH1 peptide of LptF (E. coli), SPEKPTV (E. coli); test: ELISA on ToH1 peptides (FIG.10B)
T3 construct: also called LptF ToH1 peptide

[4] = target: T4, ToH1 peptide of Asa1 (Enterococcus faecalis), […] (Enterococcus faecalis); test: ELISA on ToH1 peptides (FIG.10B)
[5] = target: T5, ToH1 peptide of HyR3 (Candida albicans), TFEPPVV (Candida albicans); test: ELISA on ToH1 peptides (FIG.10B)
T5 construct: also called HyR3 ToH1 peptide

[6] = target: T6, E. coli FimH, wild type, on E. coli (BW25113) cells (E. coli, UniProt P08191 22-300); test: flow cytometry and immunofluorescence of rHMGB1 on E. coli BW25113
T6 construct: whole, on cells; also called WT FimH; ∆FimHWT
T6 sequence (P08191 22-300): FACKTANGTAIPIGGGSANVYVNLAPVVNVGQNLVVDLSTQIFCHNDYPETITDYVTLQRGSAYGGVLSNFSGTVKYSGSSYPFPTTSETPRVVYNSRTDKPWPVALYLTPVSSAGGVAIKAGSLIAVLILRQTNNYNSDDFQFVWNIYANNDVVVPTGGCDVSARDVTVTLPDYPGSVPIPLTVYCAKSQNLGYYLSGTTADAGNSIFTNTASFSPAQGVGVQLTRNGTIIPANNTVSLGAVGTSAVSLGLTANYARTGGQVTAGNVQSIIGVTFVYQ

[7] = target: T1, ToH1 peptide of BmpC (Borrelia …); test: ELISA on ToH1 peptides (FIG.10A)
[8] = target: T2, ToH1 peptide of OmpA (Bacteroidales), …; test: ELISA on ToH1 peptides (FIG.10A)
[9] = target: T3, ToH1 peptide of LptF (E. coli), SPEKPTV; test: ELISA on ToH1 peptides (FIG.10A)
[10] = target: T4, ToH1 peptide of Asa1 (Enterococcus …); test: ELISA on ToH1 peptides (FIG.10A)
[11] = target: T5, ToH1 peptide of HyR3 (Candida …); test: ELISA on ToH1 peptides (FIG.10A)

Measured: binding result

B1: F5 scFv (scFv)
scFv: EVQLVQSGPEVKKPGASVKVSCKASGFIFSNYGIGWVRQAPGQGLEWLGWISGYNGQTNYAQTVQGRVTMTADTSTTTAYMDLRNLRSDDTAIYYCARQSIPYYMDVWGKGTMVTVSSGGGGSGGGGSGGGGSGGGGASDIVMTQSPLSSPVTLGQPASISCRSSQSLVHSNGNTYLSWLHQRPGQPPRLLIYRISNRLSGVPDRFSGSGAGTDFTLKISRVEAEDVGVYYCMQAKQFPVTFGQGTRLEIKGSHHHHHH
notes: also called antibody F5
binds: [1] | [2] | [3] | [4] | [5]

B2: Recombinant human HMGB1 (rHMGB1) (ligand)
chain: MGKGDPKKPRGKMSSYAFFVQTCREEHKKKHPDASVNFSEFSKKCSERWKTMSAKEKGKFEDMAKADKARYEREMKTYIPPKGETKKKFKDPNAPKRPPSAFFLFCSEYRPKIKGEHPGLSIGDVAKKLGEMWNNTAADDKQPYEKKAAKLKEKYEKDIAAYRAKGKPDAAKKGVVKAEKSKKKKEEEEDEEDEEDEEEEEDEEDEDEEEDDDDE
notes: also called High mobility group box 1
binds: [6]

B3: G6 scFv (scFv)
scFv: QVQLQQSGPGLVKPSQTLSLTCAISGDSVSSNSAAWNWIRQSPSRGLEWLGRTYYRSKWYNDYAVSVKSRITINPDTSKNQFSLQLNSVTPEDTAVYYCARRSTWGTFDYWGQGTLVTVSSGGGGSGGGGSGGGGSGGGGASDIVMTQTPDSLAVSLGERATINCKSSQSVLYSSNNKNYLAWYQQKPGQPPKLLIYWASTRESGVPDRFSGSGSGTDFTLTISSLQAEDVAVYYCQQYYALPLTFGGGTKLEIKGSHHHHHH
notes: also called antibody G6
binds: [7] | [8] | [9] | [10] | [11]
